Experimental data: patent publication US12258605B2, “Alkane oxidation by modified hydroxylases” (The California Institute of Technology, priority 2005, dated 2025)
Residue numbers refer to the chain shown, from its start. Names and notes keep the numbering of the source. Marks after values point to notes of the source that are not given here.

B1: 35-E11-E464T: P450 BM-3 variant, SEQ ID NO:10; 35-E11 with E464T (protein)
chain: TIKEMPQPKTFGELKNLPLLNTDKPVQALMKIADELGEIFKFEAPGCVTRYLSSQRLIKEACDESRFDKNLSQALKFFRDFSGDGLFTSWTHEINWKKAHNILLPSFSQQAMKGYHAMMVDIAVQLVQKWERLNADEHIEVSEDMTRLTLDTIGLCGFNYRFNSFYRDQPHPFIISMVRALDEVMNKLQRANPDDPAYDENKRQCQEDIKVMNDLVDKIIADRKARGEQSDDLLTQMLNGKDPETGEPLDDGNISYQIITFLIAGHETTSGLLSFALYFLVKNPHVLQKVVEEAARVLVDPVPSYKQVKQLKYVGMVLNEALRLWPTFPAFSLYAKEDTVLGGEYPLEKGDEVMVLIPQLHRDKTIWGDDVEEFRPERFENPSAIPQHAFKPFGNGQRACIGQQFALHEATLVLGMMLKHFDFEDHTNYELDIKETLTLKPEGFVVKAKSKKIPLGGIPSPSTTQSAKKVRKKAENAHNTPLLVLYGSNMGTAEGTARDLADIAMSKGFAPQVATLDSHAGNLPREGAVLIVTASYNGHPPDNAKQFVDWLDQASADEVKGVRYSVFGCGDKNWATTYQKVPAFIDETLAAKGAENIADRGEADASDDFEGTYEEWREHMWSDVAAYFNLDIENSEDNKSTLSLQFVDSAADMPLAKMHGAFSTNVVASKELQQPGSARSTRHLEIELPKEASYQEGDHLGVIPRNYEGTVNRVTARFGLDASQQIRLEAEEEKLAHLPLAKTVSVEELLQYVELQDPVTRTQLRAMAAKTVCPPHKVELEALLEKQAYKEQVLAKRLTMLELLEKYPACEMKFSEFIALLPSIRPRYYSISSSPRVDEKQASITVSVVSGEAWSGYGEYKGIASNYLAELQEGDTITCFISTPQSEFTLPKDPETPLIMVGPGTGVAPFRGFVQARKQLKEQGQSLGEAHLYFGCRSPHEDYLYQEELENAQSEGIITLHTAFSRMPNQPKTYVQHVMEQDGKKLIELLDQGAHFYICGDGSQMAPAVEATLMKSYADVHQVSEADARLWLQQLEEKGRYAKDVWAG
modifications: mutant P450 35-E11-E464T protein sequence
notes: 35-E11 with E464T
B2: 23-1D: P450 BM-3 variant, SEQ ID NO:12; 35-E11 plus Q645R, P968L (protein)
chain: B1 chain with T464G, Q645R, P968L
modifications: Mutant P450 23-1D protein sequence
notes: 35-E11 plus Q645R, P968L
B3: 21-4G: P450 BM-3 variant, SEQ ID NO:13; 35-E11 plus D631N (protein)
chain: B1 chain with T464G, D631N
modifications: Mutant P450 21-4G protein sequence
notes: 35-E11 plus D631N

assay: Background NADPH oxidation rate in screen (cell lysate, no substrate); type: biochemical; settings: relative to 35-E11
Method: (§1) Libraries of mutants of 35-E11 were screened for phenotypes indicative of either increased product formation on small gaseous substrates slightly larger than methane. Additionally, they were screened for increased coupling of the consumption of NADPH reducing equivalents to product formation. Product formation was determined by measuring total amount of dimethyl ether hydroxylation while increased coupling was determined primarily by decreased background NADPH consumption rates (measured spectrophotometrically at 340 nm in the absence of substrate).
The relative dimethyl ether (DME) activity was measured, 1 hour after treatment with Purpald, as the average net and absorbance at 550 nm from 8 microtitre plate DME reactions of the mutant compared to 8 equivalent reactions of 35-E11. All values were normalized by measuring the P450 concentration in each well with CO binding. “Asteriks” indicate criteria used to select mutants from libraries for further characterization. The oxidation rate is measured as absorbance change at 340 nm over 1 minute upon the addition of NADPH to 8 microtitre plate wells containing P450-containing cell lysate and compared to 8 equivalent reactions of 35-E11. All values were normalized by measuring the P450 concentration in each well with CO binding. The total turnover number (TTN) was measured as the absorbance at 550 nm of methane reactions with each mutant after treatment with alcohol oxidase and […]

Q: Which “Relative background NADPH oxidation rate” value does the source give for B1 here?
A: 0.7*

Q: Which “Relative background NADPH oxidation rate” value does the source give for B2 here?
A: 0.8*

Q: With B3 as the molecule, how does the “Relative background NADPH oxidation rate” value read?
A: 0.7*

assay: High-throughput dimethyl ether (DME) screen; type: biochemical; settings: relative to 35-E11; normalized to P450 concentration
Method: Cell lysates for high throughput screening were prepared as described previously (Peters et al., J. Am. Chem. Soc. 125:13442 (2003); incorporated by reference herein). High-throughput dimethyl ether (DME) screens were performed in 96 well plates as described previously. Improved mutants were selected based on an increased signal compared to 9-10A (for the saturation mutagenesis libraries) and 1-12G (for the recombination library). Reactions on octane and propane were analyzed by gas chromatography as described.
as §1
The relative dimethyl ether (DME) activity was measured, 1 hour after treatment with Purpald, as the average net and absorbance at 550 nm from 8 microtitre plate DME reactions of the mutant compared to 8 equivalent reactions of 35-E11. All values were normalized by measuring the P450 concentration in each well with CO binding. “Asteriks” indicate criteria used to select mutants from libraries for further characterization. The oxidation rate is measured as absorbance change at 340 nm over 1 minute upon the addition of NADPH to 8 microtitre plate wells containing P450-containing cell lysate and compared to 8 equivalent reactions of 35-E11. All values were normalized by measuring the P450 concentration in each well with CO binding. The total turnover number (TTN) was measured as the absorbance at 550 nm of methane reactions with each mutant after treatment with alcohol oxidase and
Screening libraries by spectroscopically monitoring NADPH consumption rates in the presence of the alkane often selects for mutants with NADPH oxidation rates highly uncoupled to product formation. This can be overcome through the use of surrogate substrates that mimic desired substrates, yet yield species when hydroxylated that are easily detected either directly or with the addition of a dye. For example, the screen for the high-throughput identification of mutant BM-3 enzymes with activity towards propane as described previously uses dimethyl ether (DME) as a propane surrogate substrate. Upon hydroxylation, it decomposes into methanol and dye-sensitive formaldehyde. In addition, hexyl methyl ether (HME) may be used as a surrogate for octane. It shares most of the physical properties of octane, including solubility in buffer, size, shape, and strength of its C—H bonds. When HME is hydroxylated at its methoxy carbon, it also produces an equivalent of formaldehyde which is visually detected at concentrations as low as 10 μM with the dye Purpald (see FIG. 25). Hexanal, the aldehyde product formed when the α-carbon of the hexyl group is hydroxylated, is practically unreactive towards Purpald at some concentrations used in the present screens. Formaldehyde is approximately 42 times more sensitive to Purpald than hexanal (see FIG. 26). This disproportionate response makes HME, in contrast to the symmetric ether DME, a regio-selective screen for terminal alkane hydroxylation.
High-throughput screening. Single colonies were picked and inoculated by a Qpix robot (Genetix, Beaverton, OR) into 1-mL, deep-well plates containing LB (Amp*) medium (400 μL). The plates were incubated at 30° C., 250 rpm, and 80% relative humidity. After 24 h, 50 μL from this pre-culture were used to inoculate a 2-mL, deep-well plates containing […] TB (Amp^+) medium per well. Cultures were grown at 37° C., 220 rpm, and 80% relative humidity. […]

Q: For B1, which “Relative DME activity in screen” value is on record?
A: 0.8

Q: For B2, which “Relative DME activity in screen” value is on record?
A: 0.7

Q: Which “Relative DME activity in screen” value does the source give for B3 here?
A: 1.1

assay: Methane to methanol conversion (alcohol oxidase/Purpald); type: biochemical; settings: methane to methanol
Method: The 35-E11 variant was tested for the ability to convert methane to methanol using the method of Anthon and Barrett (Agric. Food Chem., 52:3749 (2004)). The method was optimized so that it could detect methanol concentrations in water as low as 10 μM.
The mutant BM-3 enzymes described below were purified using published procedures and used as catalysts in small reactions with methane. In glass head space vials containing magnetic stirring bars, BM-3 catalyst was added to 0.1 M potassium phosphate buffer (pH=8) saturated with methane. The vials were then crimped shut and charged to 20 psi with methane. To start the biotransformation, an NADPH regeneration system consisting of NADP+, isocitrate, and isocitric dehydrogenase was added through a syringe. The reaction was allowed to stir 12-15 hours. Methanol production was measured using a coupled enzyme assay. Aliquots of the reaction were transferred to 96-well microtitre plates and reacted with the enzyme alcohol oxidase for 5 minutes at room temperature. Alcohol oxidase converts the methanol produced by the BM-3 variants into formaldehyde which can be detected with the dye Purpald. To detect formaldehyde and quench the alcohol oxidase reaction, a solution of Purpald in 2 M NaOH was added and allowed to react for one hour. The purple color that Purpald forms in the presence of formaldehyde was quantified one hour later by spectrophotometrically reading the well at 550 nm and comparing the absorbance against similarly-treated solutions of BM-3, NADPH regeneration system, and methane-free buffer spiked with known concentrations of methanol. The results of these biotransformations are reported in Table 3 and sample spectra from the colorimetric assay are shown in FIG. 7.
Reactions for enzyme-catalyzed conversion of methane to methanol were carried out in 10 mL glass headspace vials. A 470 μL reaction mixture containing 5 μM purified BM-3 variant in 0.1 M potassium phosphate buffer (pH 8.0) was first added to the vial. The vial was immediately topped with a septum, pressurized with 30 psi of methane and shaken at 4° C. for 1 hour. […] For determination of total turnover, the reaction was allowed to proceed for 20 hours at room temperature.
The amount of methanol product formed during the 20 hr methane reaction was quantified colorimetrically with the use of alcohol oxidase and Purpald. 190 μL of the reaction mixture is transferred onto a single cell of a 96 well plate. 10 μL of 0.05 U/μL solution of alcohol oxidase (from Pichia pastoris, purchased from Sigma-Aldrich) was added to cell and allowed to incubate at room temperature for 5 minutes. During this time, the alcohol oxidase converts the methanol into formaldehyde. Purpald (168 mM in 2 M NAOH) was then added to form a purple product with the formaldehyde in solution. The purple color was read approximately 1 hour later at 550 nm using a Spectramax Plus microtiter plate reader. The concentration of methanol was determined based on the measure absorbance in comparison to a methanol calibration curve. The methanol calibration curve was generated with several standards. Each standard contained 100 μL of a methanol solution (10, 20, 40, 60, 100 μM) and 90 μL of the methane reaction mixture described above, without the methane pressurization.
The relative dimethyl ether (DME) activity was measured, 1 hour after treatment with Purpald, as the average net and absorbance at 550 nm from 8 microtitre plate DME reactions of the mutant compared to 8 equivalent reactions of 35-E11. All values were normalized by measuring the P450 concentration in each well with CO binding. “Asteriks” indicate criteria used to select mutants from libraries for further characterization. The oxidation rate is measured as absorbance change at 340 nm over 1 minute upon the addition of NADPH to 8 microtitre plate wells containing P450-containing cell lysate and compared to 8 equivalent reactions of 35-E11. […]

Q: For B1, which “Methane TTN” value is on record?
A: 11

Q: For B2, which “Methane TTN” value is on record?
A: 11

Q: For B3, which “Methane TTN” value is on record?
A: 10
